The text below walks through data of article PMC7266990 (2020).

The target of this test is A. fumigatus wt CBC consisting of the HapB^230–299, HapC^40–137, and HapE^47–164 subunits (Aspergillus fumigatus). The test is described as follows: SPR. In general terms: Surface plasmon resonance follows binding to a sensor surface in real time, without labels.

B1: A. fumigatus HapX^24–158 bZIP peptide (covering the CBC-binding domain, basic region, and coiled-coil domain) (domain or fragment)
chain: SPSPGPGTPGSITSKEWVIPPRPKPGRKPATDTPPTKRKAQNRAAQRAFRERRAARVNELEEQIKKIEDEHEIHIAAFKEQITNLSREVEQCRSEMTWWRDRCHALEKEVSVERSAKEAIVKEFRSSLSDREAVR
Take B1: the Kd was 1.01 nM.

As a reminder, the Kd is the free concentration of one partner at which half of the binding sites on the other are occupied at equilibrium, for simple one-to-one binding.
